Assay results as given in IntAct's records for PubMed 40624043.

B1: NTF2-related export protein 2 (Homo sapiens), Q9NPJ8-3 (parent)
chain: MRKYRSHWSQGDREGYQRRSNYYEGPHTSHSSPADRTREEVVTPTLPEHTATRSQMATSLDFKTYVDQACRAAEEFVNIYYETMDKRRRALTRLYLDKATLIWNGNAVSGLDALNNFFDTLPSSEFQVNMLDCQPVHEQATQSQTTVLVVTSGTVKFDGNKQHFFNQNFLLTAQSTPNNTVWKIASDCFRFQDWSSS
partner: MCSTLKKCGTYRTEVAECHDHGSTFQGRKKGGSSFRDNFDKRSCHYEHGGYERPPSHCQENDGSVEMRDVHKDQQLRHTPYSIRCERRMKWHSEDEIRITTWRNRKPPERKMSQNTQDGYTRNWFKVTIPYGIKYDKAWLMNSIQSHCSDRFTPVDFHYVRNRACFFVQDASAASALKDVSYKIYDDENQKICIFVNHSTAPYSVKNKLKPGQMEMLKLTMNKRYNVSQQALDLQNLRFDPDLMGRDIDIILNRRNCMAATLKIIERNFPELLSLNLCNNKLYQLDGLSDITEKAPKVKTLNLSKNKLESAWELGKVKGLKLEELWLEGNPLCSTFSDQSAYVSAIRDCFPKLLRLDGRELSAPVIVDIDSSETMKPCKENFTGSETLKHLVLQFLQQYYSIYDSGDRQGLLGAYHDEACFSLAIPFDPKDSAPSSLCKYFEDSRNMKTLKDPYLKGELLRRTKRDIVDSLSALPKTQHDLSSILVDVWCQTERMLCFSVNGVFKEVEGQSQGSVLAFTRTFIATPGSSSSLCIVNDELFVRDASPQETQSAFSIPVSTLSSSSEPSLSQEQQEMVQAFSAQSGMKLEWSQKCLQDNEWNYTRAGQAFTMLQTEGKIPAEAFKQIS
B2: NTF2-related export protein 2 (Homo sapiens), Q9NPJ8-3 (parent)
chain: B1 chain
partner: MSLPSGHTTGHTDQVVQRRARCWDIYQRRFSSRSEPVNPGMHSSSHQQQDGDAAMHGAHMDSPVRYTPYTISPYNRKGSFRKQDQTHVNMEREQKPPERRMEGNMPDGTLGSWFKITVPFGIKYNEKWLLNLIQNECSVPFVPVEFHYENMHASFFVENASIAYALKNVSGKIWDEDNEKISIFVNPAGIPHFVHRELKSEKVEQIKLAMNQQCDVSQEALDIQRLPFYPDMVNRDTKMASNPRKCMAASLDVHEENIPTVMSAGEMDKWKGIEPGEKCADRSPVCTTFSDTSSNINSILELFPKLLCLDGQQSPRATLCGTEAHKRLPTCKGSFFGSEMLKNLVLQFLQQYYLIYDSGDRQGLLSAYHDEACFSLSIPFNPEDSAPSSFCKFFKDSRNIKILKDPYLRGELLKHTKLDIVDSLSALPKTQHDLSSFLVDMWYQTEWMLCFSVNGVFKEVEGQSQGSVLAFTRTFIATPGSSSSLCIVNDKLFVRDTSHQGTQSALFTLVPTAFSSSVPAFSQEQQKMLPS

Variants of: B1
Conditions: with nxf2_human NXF2B

Variant	effect of a mutation on the interaction
MRKYRSHWSQGDREGYQRRSNYYEGPHTSHSSPADRTREEVVTPTLPEHTATRSQMATSLDFKTYVDQACRAAEEFVNIYYETMDKRRRSLTRLYLDKATLIWNGNAVSGLDALNNFFDTLPSSEFQVNMLDCQPVHEQATQSQTTVLVVTSGTVKFDGNKQHFFNQNFLLTAQSTPNNTVWKIASDCFRFQDWSSS [A90S]	with no effect

Variants of: B2
Conditions: with NXF3, Q9H4D5-1

Variant	effect of a mutation on the interaction
MRKYRSHWSQGDREGYQRRSNYYEGPHTSHSSPADRTREEVVTPTLPEHTATRSQMATSLDFKTYVDQACRAAEEFVNIYYETMDKRRRSLTRLYLDKATLIWNGNAVSGLDALNNFFDTLPSSEFQVNMLDCQPVHEQATQSQTTVLVVTSGTVKFDGNKQHFFNQNFLLTAQSTPNNTVWKIASDCFRFQDWSSS [A90S]	with no effect
